# Data reported in patent US20070116705A1.
# Biological target: N-terminus of murine PDE8, containing the PAS/PAC domain, fused to the LexA DNA binding domain (PDE8/LexA) (murine)
# Assay: yeast two-hybrid screen, number of high-stringency positive cDNA clones
# N-terminus of murine PDE8, containing the PAS/PAC domain, fused to the LexA DNA binding domain (PDE8/LexA) (murine), sequence (P0A7C2 other isoform, or with tags, fused parts or gaps limits assumed): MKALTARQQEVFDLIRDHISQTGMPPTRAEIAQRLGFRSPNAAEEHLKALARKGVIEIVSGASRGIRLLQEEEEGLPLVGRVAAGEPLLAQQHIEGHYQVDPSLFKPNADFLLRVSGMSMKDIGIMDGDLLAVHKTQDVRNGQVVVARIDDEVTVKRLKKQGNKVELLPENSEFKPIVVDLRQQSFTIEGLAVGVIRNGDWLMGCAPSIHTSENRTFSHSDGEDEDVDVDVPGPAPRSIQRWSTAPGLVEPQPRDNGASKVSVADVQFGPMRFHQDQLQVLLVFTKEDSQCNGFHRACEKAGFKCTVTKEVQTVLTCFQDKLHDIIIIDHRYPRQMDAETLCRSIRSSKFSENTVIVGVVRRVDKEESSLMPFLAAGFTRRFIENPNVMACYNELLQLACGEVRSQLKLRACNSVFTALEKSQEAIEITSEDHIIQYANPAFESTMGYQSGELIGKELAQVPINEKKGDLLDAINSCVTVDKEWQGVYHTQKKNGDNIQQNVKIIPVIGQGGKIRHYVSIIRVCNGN
row,Substance,# of clones [clones]
1,KIAA0898 (from UniProt O94972 1-964),8
2,LC8/PIN (Novel),15
3,LC8/PIN (dynein 8 kDa light chain) (from UniProt P63167 1-89),30
